Series [1] deals with the molecule itself. Put plainly: native MS; single proteins, 5–20 μM monomers, 150 mM ammonium acetate (pH 6.8–8.0), nanoflow electrospray.
The target of series [2] is T1, human proteasome α7 subunit, wild type (human, UniProt P25788 1-255).
T1 construct: proteasome subunit α7 (PSMA3), human, residues 1-255; wild-type construct in pRSFDuet-1; also called PSMA3; α7 homotetradecamer; copies: 14
The series can be described thus: native MS; α4 or α6 (4 μM monomers) mixed with α7 (2 μM tetradecamer), 20 °C, 1 h, 150 mM ammonium acetate. The settings on record: both partners purified.

Values joined by “and” are separate entries in the source; they are usually repeats but may differ in a detail not shown here. Equal entries are not always repeated.

T1 sequence (P25788 whole entry, the tested form may be a part): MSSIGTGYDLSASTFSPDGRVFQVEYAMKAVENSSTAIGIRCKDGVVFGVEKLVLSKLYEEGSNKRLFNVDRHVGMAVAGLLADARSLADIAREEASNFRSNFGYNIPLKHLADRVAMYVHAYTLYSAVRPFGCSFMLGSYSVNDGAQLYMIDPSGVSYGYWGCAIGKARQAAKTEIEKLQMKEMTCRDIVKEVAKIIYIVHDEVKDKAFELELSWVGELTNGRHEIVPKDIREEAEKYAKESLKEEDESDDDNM

B1: human proteasome α2 subunit (natural protein, UniProt P25787 1-234, looked up)
chain: MAERGYSFSLTTFSPSGKLVQIEYALAAVAGGAPSVGIKAANGVVLATEKKQKSILYDERSVHKVEPITKHIGLVYSGMGPDYRVLVHRARKLAQQYYLVYQEPIPTAQLVQRVASVMQEYTQSGGVRPFGVSLLICGWNEGRPYLFQSDPSGAYFAWKATAMGKNYVNGKTFLEKRYNEDLELEDAIHTAILTLKESFEGQMTEDNIEVGICNEAGFRRLTPTEVKDYLAAIA
notes: proteasome subunit α2 (PSMA2), human, residues 1-234; subcloned into the NdeI and XhoI sites of pRSFDuet-1; no tag is named; also called PSMA2
As for B1, the “stoichiometry N” value in series [1] was 2.

B2: human proteasome α3 subunit (natural protein, UniProt P25789 1-261, looked up)
chain: MSRRYDSRTTIFSPEGRLYQVEYAMEAIGHAGTCLGILANDGVLLAAERRNIHKLLDEVFFSEKIYKLNEDMACSVAGITSDANVLTNELRLIAQRYLLQYQEPIPCEQLVTALCDIKQAYTQFGGKRPFGVSLLYIGWDKHYGFQLYQSDPSGNYGGWKATCIGNNSAAAVSMLKQDYKEGEMTLKSALALAIKVLNKTMDVSKLSAEKVEIATLTRENGKTVIRVLKQKEVEQLIKKHEEEEAKAEREKKEKEQKEKDK
notes: proteasome subunit α3 (PSMA4), human, residues 1-261; the vector holds a TEV protease cleavage site preceding the gene; also called PSMA4
B2: the “stoichiometry N” value in series [1] turned out to be 2.

B3: human proteasome α4 subunit (natural protein, UniProt O14818 1-248, looked up)
chain: MSYDRAITVFSPDGHLFQVEYAQEAVKKGSTAVGVRGRDIVVLGVEKKSVAKLQDERTVRKICALDDNVCMAFAGLTADARIVINRARVECQSHRLTVEDPVTVEYITRYIASLKQRYTQSNGRRPFGISALIVGFDFDGTPRLYQTDPSGTYHAWKANAIGRGAKSVREFLEKNYTDEAIETDDLTIKLVIKALLEVVQSGGKNIELAVMRRDQSLKILNPEEIEKYVAEIEKEKEENEKKKQKKAS
notes: proteasome subunit α4 (PSMA7), human, residues 1-248; subcloned into the NdeI and SalI sites of pET28b; also called PSMA7
With B3, the “stoichiometry N” value was 2 in series [1]; 7 α7 subunits per α4 and 14 α7 subunits per α4 in series [2].

B4: human proteasome α1 subunit (natural protein)
chain: not shown
notes: proteasome subunit α1 (PSMA6), human, residues 1-246; subcloned into the NdeI and SalI sites of pET28b; also called PSMA6
Turning to B4, the “stoichiometry N” value in series [1] was 2.

B5: human proteasome α5 subunit (natural protein, UniProt P28066 1-241, looked up)
chain: MFLTRSEYDRGVNTFSPEGRLFQVEYAIEAIKLGSTAIGIQTSEGVCLAVEKRITSPLMEPSSIEKIVEIDAHIGCAMSGLIADAKTLIDKARVETQNHWFTYNETMTVESVTQAVSNLALQFGEEDADPGAMSRPFGVALLFGGVDEKGPQLFHMDPSGTFVQCDARAIGSASEGAQSSLQEVYHKSMTLKEAIKSSLIILKQVMEEKLNATNIELATVQPGQNFHMFTKEELEEVIKDI
notes: proteasome subunit α5 (PSMA5), human, residues 1-241; the vector holds a TEV protease cleavage site preceding the gene; also called PSMA5
Turning to B5, in series [1], the “stoichiometry N” value was found to be 2.

By stoichiometry N is commonly meant a count of units in the complex or per binding partner.

(Values after publication PMC6539845 (International Journal of Molecular Sciences, 2019).)
